The assay concerns the target endogenous B7-H1 wild type (NOD mouse, from wild-type spleen) (mouse (endogenous in NOD spleen), UniProt Q9EP73 19-290). The experiment in a line: SPR. On the technique in general: Surface plasmon resonance follows binding to a sensor surface in real time, without labels.

In paper PMC3279538 (Diabetes, 2010) one finds Kd and koff data, which are given here for one molecule.

endogenous B7-H1 wild type (NOD mouse, from wild-type spleen), sequence (Q9EP73 19-290): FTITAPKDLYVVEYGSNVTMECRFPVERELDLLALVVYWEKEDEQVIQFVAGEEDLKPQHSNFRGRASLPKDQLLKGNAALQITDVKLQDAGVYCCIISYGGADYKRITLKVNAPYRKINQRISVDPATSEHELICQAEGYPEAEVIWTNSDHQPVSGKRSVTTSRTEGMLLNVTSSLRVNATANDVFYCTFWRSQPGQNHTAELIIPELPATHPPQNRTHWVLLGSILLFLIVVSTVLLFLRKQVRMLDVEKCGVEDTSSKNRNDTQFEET

B1: PD-1 receptor (receptor, UniProt Q02242 25-169, looked up)
chain: LEVPNGPWRSLTFYPAWLTVSEGANATFTCSLSNWSEDLMLNWNRLSPSNQTEKQAAFCNGLSQPVQDARFQIIQLPNRHDFHMNILDTRRNDSGIYLCGAISLHPKAKIEESPGAELVVTERILETSTRYPSPSPKPEGRFQGM
On to B1, for which the affinity, expressed as Kd, was 11 nM and the off-rate (koff) (as a rule, the first-order rate constant of dissociation) came to 0.0017 s⁻¹.
